The source of these data is the DeepSol protein solubility set.

This series can be described thus: soluble on expression in E. coli; label from the status in PepcDB or PDB records.
As to “MANSLRNVNDYDPFKYRPSYFDLEAPTESFALGKFVDAIEVKQMALDAFSESSMVSIATSQLPKTAYTATSFIESEYYSFPYLFNDQKYYWDYFDYKIPAADFAVLELELDLNNQQDQQIKDHFIDPAIKAYKQLGDSTGLFATKPLTEYQNDTHYLLGYPVVPTDHTQLWECKQGAERFSYGYFYSNMARLTKNLRQGDPNAGSKTHIEYSNELLDKDSMDQGIVR”, the “soluble on expression in E. coli” value is on record as “not soluble”.

With “MANTGSLVLLRHGESDWNALNLFTGWVDVGLTDKGQAEAVRSGELIAEHDLLPDVLYTSLLRRAITTAHLALDSADRLWIPVRRSWRLNERHYGALQGLDKAETKARYGEEQFMAWRRSYDTPPPPIERGSQFSQDADPRYADIGGGPLTECLADVVARFLPYFTDVIVGDLRVGKTVLIVAHGNSLRALVKHLDQMSDDEIVGLNIPTGIPLRYDLDSAMRPLVRGGTYLDPEAAAAGAAAVAGQGRGGVPRGAAALEHHHHHH”, the “soluble on expression in E. coli” value was “soluble”. For “MANVLVINFPGEGHINPTLAIISELIRRGETVVSYCIEDYRKKIEATGAEFREFENFLSQINIMERVNEGGSPLTMLSHMIEASERIVTQIVEETKGEQYDYLLYDNHFPVGRIIANVLQLPSISSCTTFAFNQYITFNDEQESRQVDETNPLYQSCLAGMEKWNRQYGMKCNSMYDIMNHPGDITIVYTSKEYQPRSDVFDESYKFVGPSIATRKEVGSFPMEDLKGEKLIFISMGTVFNEQPELYEKCFEAFKGVEATVILAVGKKINISQFENIPNNFKLYNYVPQLEVLQHADVFVTHGGMNSSSEALYYGVPLVVIPVTGDQPLVAKRVNEVGAGIRLNRKELTSELLRETVKEVMYDVTFKENSRKVGESLRNAGGYKRAVDEIFKMKMNSYLKLK”, the “soluble on expression in E. coli” value is “not soluble”. In the case of “MANYYEVLGVQASASPEDIKKAYRKLALRWHPDKNPDNKEEAEKKFKLVSEAYEVLSDSKKRSLYDRAGCDSWRAGGGA”, the “soluble on expression in E. coli” value is “soluble”.

Turning to “MAPDRSGGPAAAELIAGLGLERHPEGGWYRETYRAAGTIPGTLLPGQVGGERSFSTAIYFLLERGDISALHRIRSDELWHFHAGAPLIVHVITPAGGSYALTLGSDPASGETFQAVVPAGCWFGAETTGDYSLVGCTVAPGFDFADFEMGSRADLLGRFPTHAGIIRRLTRDGDLEHHHHHH”, the “soluble on expression in E. coli” value is listed as “not soluble”.

Regarding “MAPINGIRDDDAASIRLRDSFRDEVSKRMGELLLKGQTMLDEYCPTCSGILMEDRALVRRCVTCELFREKSSVIVGEVSLQDEDLNEAVNNKIPTPAAPVNKPAKKAVLQKSAPAKKKEAVPAAAEPSSSDTIESATTAVLQKLEWATDRLNSTEEVARVMDFLSVIQKSAETLKALRI”, the “soluble on expression in E. coli” value was “not soluble”. For “MAPKCWSNLPSDVKREVLEHGDCQQWFNVRLCSRADMNLVDSLKLRIPFLKIQISNTTFSIIIVESPSAILRIDLHQKSGGNAEFSVEIFKNSDLELGNLIKTIENTTLDAEISNLLEKSIFHRKIDIATCQIQADGLQAENPVLAMIHAKFTENAPKKLIFSGKSMEENRFLAKFFENLNIDFVFRSWRKDLSREWGEGMNHLRIKIFEVSKWTTLLGDFEHFTAYDEIEPVMYMARILSRPMKRSHWFPGFHVPVAERLFRQIFRQEMFEKFENHSIRKSPINLKLWIFVKFTKCGISIFVGDPKDFNERDGTCDLEWMCPNCAPKTMENWFFRETIGKLHF” the value was “not soluble”. For “MAPRDIRPGAEYGDIIEEAIVTCKVFLIVFSETSQISRWVRSELNIGFSSNKPIIPFRIDPTDLKGSMKLMLNDKHWLNAYPNPEEKFSELAAVILDLLQHPAVDTISPPGFQPASNVASADGSNAGAQGLFGKLLNQLFVKRRVKVTSDHAAEIFLNGERKGKLDAYETGNYSVSEDFYQLEVYSCEYGKKVKCEYSGSFSNSSTVIISVDMATAEKQYLMKAKNITSGQINDLGIIFLDEGKFEDAQECFLKAASMGEAAAAYNLGMMYHFGKGVEIDYDVAREYYEEAVKSDYPLALNNLGSIYYNGHGVRKDIAKSFPYFCRAAERGVESAQFTVATMLFYGQGVAVDKAKAKKWFQKAAAQGCKDSQNYLNSWVDD” the value was “not soluble”; for “MAPVKLYMVEVIDKKEIAANERRSRENDVTGPEITHYYQVTFRLTTDDRKDLVLNIDKSSYQNIEPEMKGRLFMQGSRFVQFETDVPIDEQKLEHHHHHH”, “soluble”. Turning to “MAPVLSKDVADIESILALNPRTQSHAALHSTLAKKLDKKHWKRNPDKNCFHCEKLENNFDDIKHTTLGERGALREAMRCLKCADAPCQKSCPTHLDIKSFITSISNKNYYGAAKMIFSDNPLGLTCGMVCPTSDLCVGGCNLYATEEGSINIGGLQQFASEVFKAMNIPQIRNPCLPSQEKMPEAYSAKIALLGAGPASISCASFLARLGYSDITIFEKQEYVGGLSTSEIPQFRLPYDVVNFEIELMKDLGVKIICGKSLSENEITLNTLKEEGYKAAFIGIGLPEPKTDDIFQGLTQDQGFYTSKDFLPLVAKSSKAGMCACHSPLPSIRGAVIVLGAGDTAFDCATSALRCGARRVFLVFRKGFVNIRAVPEEVELAKEEKCEFLPFLSPRKVIVKGGRIVAVQFVRTEQDETGKWNEDEDQIVHLKADVVISAFGSVLRDPKVKEALSPIKFNRWDLPEVDPETMQTSEPWVFAGGDIVGMANTTVESVNDGKQASWYIHKYIQAQYGASVSAKPELPLFYTPVDLVDISVEMAGLKFINPFGLASAAPTTSSSMIRRAFEAGWGFALTKTFSLDKDIVTNVSPRIVRGTTSGPMYGPGQSSFLNIELISEKTAAYWCQSVTELKADFPDNIVIASIMCSYNKNDWMELSRKAEASGADALELNLSAPHGMGERGMGLACGQDPELVRNICRWVRQAVQIPFFAKLTPNVTDIVSIARAAKEGGADGVTATNTVSGLMGLKADGTPWPAVGAGKRTTYGGVSGTAIRPIALRAVTTIARALPGFPILATGGIDSAESGLQFLHSGASVLQVCSAVQNQDFTVIQDYCTGLKALLYLKSIEELQGWDGQSPGTESHQKGKPVPRIAELMGKKLPNFGPYLEQRKKIIAEEKMRLKEQNAAFPPLERKPFIPKKPIPAIKDVIGKALQYLGTFGELSNIEQVVAVIDEEMCINCGKCYMTCNDSGYQAIQFDPETHLPTVTDTCTGCTLCLSVCPIIDCIRMVSRTTPYEPKRGLPLAVNPVC”, the “soluble on expression in E. coli” value is “soluble”. Regarding “MAQFTEEEKTIRRIEKRFNKGMVQYGLIEEGDKVLVGLSGGKDSLALVELLGKRSHIFKPRFSVVAVHVVMKNIPYQSDWDYLREHAEKNGVPLVVYETSFDPSTDTRKSPCFLCSWNRRKALFTVAKEQGCNKIALGHHMDDILETLLMNITYQGAFSTMPPRLVMNKFDMTIIRPMCLVHEADLLELAQIRGYRKQVKNCPYESQSSRSDMKGILRQLEKMNPEARYSLWGSMTNVQEELLPKEVEF”, the “soluble on expression in E. coli” value is listed as “not soluble”.

Consider “MAQIIDFFAAFRGYYSDGSTFIQIISLGSHHNLSVHISERMLSESGIKLGNFLSATVSLAEHPKNFQLKRLNLQVTVEGNFAKVHGIEANLEKNADGILVFSTNNFASAKATNQGLEIGRYKITVQAVKPSEKDLFNGMKFFGTVEEKISGLTRRVASNNTNQVIGEGFRNMSISGKRTVS”, for which the “soluble on expression in E. coli” value is listed as “not soluble”. “MAQKKGRESDSVAEGLRPAEEGDVLELDECWTYVRERANKRWLWVALCRRTRQVVAFVIGDRSARTCARLWSRIPEEYRQGRSFSDFWKSYRPVFAGDPSHRQVGKSSGEMAHVERFFGRLRQKLARYVRRTRAASESERMLHLTTKLFVEWYNEAIT”: the “soluble on expression in E. coli” value was “not soluble”. “MAQREWVEKDFYQELGVSSDASPEEIKRAYRKLARDLHPDANPGNPAAGERFKAVSEAHNVLSDPAKRKEYDETRRLFAGGGFGGRRFDSGFGGGFGGFGVGGDGAEFNLNDLFDAASRTGGTTIGDLFGGLFGRGGSARPSRPRRGNDLETETELDFVEAAKGVAMPLRLTSPAPCTNCHGSGARPGTSPKVCPTCNGSGVINRNQGAFGFSEPCTDCRGSGSIIEHPCEECKGTGVTTRTRTINVRIPPGVEDGQRIRLAGQGEAGLRGAPSGDLYVTVHVRPDKIFGRDGDDLTVTVPVSFTELALGSTLSVPTLDGTVGVRVPKGTADGRILRVRGRGVPKRSGGSGDLLVTVKVAVPPNLAGAAQEALEAYAAAERSSGFNPRAGWAGNR”: the “soluble on expression in E. coli” value is “soluble”. For “MAQSKLYPVVMAGGSGSRLWPLSRVLYPKQFLCLKGDLTMLQTTICRLNGVECESPVVICNEQHRFIVAEQLRQLNKLTENIILEPAGRNTAPAIALAALAAKRHSPENDPLMLVLAADHVIADEDAFRAAVRNAMPYAEAGKLVTFGIVPDLPETGYGYIRRGEVSAGEQDTVAFEVAQFVEKPNLETAQAYVASGEYYWNSGMFLFRAGRYLEELKKYRPDILDACEKAMSAVDPDLDFIRVDEEAFLACPEESVDYAVMERTADAVVVPMDAGWSDVGSWSSLWEISAHTAEGNVCHGDVINHKTENSYVYAESGLVTTVGVKDLVVVQTKDAVLIADRNAVQDVKKVVEQIKADGRHEHRVHREVYRPWGKYDSIDAGDRYQVKRITVKPGEGLSVQMHHHRAEHWVVVAGTAKVTIDGDIKLLGENESIYIPLGATHCLENPGKIPLDLIEVRSGSYLEEDDVVRFADRYGRV” the value was “soluble”; for “MAQVRQEIAREQEKAARLARNLAKYLSPQVWEMIFSGKKSVRLETQRKKLTVFFSDIRGFTELSEELEAEALTDLLNNYLNEMSKIALKYGGTIDKFVGDCVMVFFGDPSTQGAKKDAVAAVSMGIAMRKHMKVLRQQWRAQGITKPLEIRMGINTGYCTVGNFGADTRMDYTIIGREVNLASRLESASEAGEILISHETYSLIKDVIMCRDKGQIAVKGFSRPVQIYQVVDSRRDLGAAPSYVEHELPGFSMYLDTNNIQNYDKERVIQALQQAAER”, “not soluble”; for “MARARKGALVQCDPSIKALILQIDAKMSDIVLEELDDTHLLVNPSKVEFVKHELNRLLSKNIYNPMDEEENQ”, “soluble”. For “MARATTKQDLIMASNGQFEKLWVLIDGMSDDLQNATFADQMATAGKEAHWGRDKNLRDVLVHLYEWHQLLLNWINSNSKGERKPFLPEPYNWKTYSVMNVEFWKKHQQTPLAEAKDKLKESHRQVMALIETFSNDELFAKGVFDWTDTSTLGAYCVSATSSHYDWAMKKIKLHIKTGK” the value was “not soluble”. Take “MARDALTDALTVGELRRRVHALVLGKRQRVYSGAMFLVEVVHHPELSAMLGLEDNKLLLAMIAQRLQMQSDYFQVARHSSDSFMVWAPDLDPRSARDVAPEVLDALSQPYELRGQPLIVGFRLSGALYAQHGACFDELERSLHIAMLHLDESAGAAWNMFEPSMLEHQRHYQGLEHHHHHH”: the “soluble on expression in E. coli” value is “not soluble”. The result for “MARKEAKMLYIFDLGNVIVDIDFNRVLGAWSDLTRIPLASLKKSFHMGEAFHQHERGEISDEAFAEALCHEMALPLSYEQFSHGWQAVFVALRPEVIAIMHKLREQGHRVVVLSNTNRLHTTFWPEEYPEIRDAADHIYLSQDLGMRKPEARIYQHVLQAEGFSPSDTVFFDDNADNIEGANQLGITSILVKDKTTIPDYFAKVLC” reads “soluble”; that for “MARKNAVKDNLEQIQHQSYSELQELLSEANSMLADSAAFAGDKADSARARIGALLEKANDALGKGGSAVAERSRHAVDATESYIGANPWQTVAITTAVGLLAGFLLGRRS”, “not soluble”. The result for “MARLARLGEPFALATVVASSGSSPRKAGAKMLIRGDGSALGTVGGGHVEQDTLAAARASLAEGAPRTLEFVLTEEHGYACGGSMSVFIEPQGRRPLLVMFGAGHVGRAVTALAHGCGFRVIVVDERPEYAVPALLPGADEIVCVPVGAAFARLTLDRESFAVIATPGHVHDFDAVRGCLATEVGFIGLLGSRRKREALMKTLTEEGYEAGRQARVVTPVGLDIGAQTPEEIAVSIVGQLVKLRRQA” reads “not soluble”.
